Data published in paper PMC9191643, “Cryo-EM structure of DNA-bound Smc5/6 reveals DNA clamping enabled by multi-subunit conformational changes”.

Molecular target: Smc5 (E1015Q);Smc6 (E1048Q);Nse1;Nse2;Nse3;Nse4 (Saccharomyces cerevisiae;Saccharomyces …, UniProt Q08204;Q12749;Q07913;P38632;Q05541;P43124 1-1093;1-1114;1-336;1-267;1-303;1-402, E1015Q|E1048Q||||)
Experiment: cryo-EM structure (3.8 A); 1 mM ATP, 2 mM MgCl2; 0.3 mg/mL complex, 1.5 uM DNA; Cryo-EM sample: 1 mM ATP, 2 mM MgCl2, 1.5 uM dsDNA, 4 C, 2 h; complex from size exclusion in 25 mM Hepes pH 7.5, 250 mM NaCl, 1 mM DTT (final binding buffer not stated)
Conditions: protein: recombinant;recombinant;recombinant;recombinant;recombinant;recombinant; copies: 1;1;1;1;1;1; blunt

B1: cryo-EM dsDNA (dsDNA)
DNA 1: TGGTTTTTATATGTTTTGTTATGTATTGTTTATTTTCCCTTTAATTTTAGGATATGAAAACAAGAATTTATC
DNA 2: GATAAATTCTTGTTTTCATATCCTAAAATTAAAGGGAAAATAAACAATACATAACAAAACATATAAAAACCA
Question: Does B1 bind?
Answer: Result: binds
